# US20230380451A1, “MEANS AND METHODS TO DETOXIFY MYCOTOXINS” (priority 2020, published 2023)
# Numbering of substitutions follows the chain as printed. Where two headings read alike, the source gives them in different places.
# B1: Akr I: artificial amino acid sequence, variant of a wild type aldo-keto reductase (protein)
# chain: MRTTEISQGLKVSNLCIGAGPLGGMPTAFGYDVSEERGIATVQAVFDSPINFMDTSSEYGDSEVRIGKVIREGRMPKGFVIATKADAEGDGTARRGDFSAKQVRASFELSLERLGLTHIDVYFLHDPEKFPFEHVMARGGAMEELLRLKDEGLVGLVGVAGGDVVEMARYVDTGNLDILLNYGRYTLLDRSADSLIDKASDAGMAFLNAGPYASGLLAAPRGGSAWYQYAPPNADALQAVDQLHELCESFDVSLRSVALQFSMRDPRITSTVVGLSRPERVRALLDDAAAEIPAELWDQLPAPLNLPWNSLA
# modifications: ArkI
# B2: Akr II: artificial amino acid sequence, variant of a wild type aldo-keto reductase (protein)
# chain: MRTTEIAQGLKVSNLCIGAGPLGGMPTAFGYDVSEERGIATVQAVFDSPINFMDTSSEYGGSEARIGKVIREGLMPKGFVISSKADAEGEGVGRRGDFSAKQVRASFELSLERLGLTHLDVYFLHDPEKFPFEQVMARGGAMEELLRLKDEGLVGLVGVAGGDVLEMARYVDTGSLDILLNYGRYTLLDRSADSLITKVSDAGMAFLNAGPYASGLLAAPRGGSAWYQYAPPDATALQAVDQLHELCESFDVSLRSVALQFSMRDPRITSTVVGLSRPERVRALLDDEAAEIPAELWEQLPAPLNGDIVLPG
# modifications: ArkII
# B3: Akr III: artificial amino acid sequence, variant of a wild type aldo-keto reductase (protein)
# chain: B2 chain with L74R, L187I, G312R
# modifications: ArkIII
# How the values were obtained:
# [1] = assay type: biochemical; details: for temperature of maximum DON degradation activity (temperature optimum): 14.9° C. to 55.7° C. tested; for pH of maximum DON degradation activity (pH optimum): pH 2 to pH 10 tested, 30° C.
# Procedure: (§1) To determine the transformation of DON to epi-THS by Akr I-III, described herein, the following assay was performed. An assay buffer was prepared containing 40 ppm DON, 1 mM NADPH in Teorell Stenhagen (TS) buffer, pH 6.0 (Östling and Virtama, Acta Physiologica Scandinavica, 1946, 11:4, 289-293). Tubes containing the assay buffer were transferred in a heating block at 30° C. The reaction was started by addition of Akr I-III to a final concentration of 200 nM in a final reaction volume of 200 μL. Samples were taken before reaction start, and 2, 5, 10, 15 and 20 min after reaction start. DON transformation reactions in these samples were stopped by mixing with absolute methanol at a 1:2 ratio, followed by a 1:100 dilution with 40% methanol. The concentrations of DON and epi-THS in the samples were determined with liquid chromatography-mass spectrometry (LC-MS) on a Sciex 5500 triple quadrupole mass spectrometer coupled to Agilent 1290 series UHPLC system, using the following MS parameters: Acquisition duration: 4 min; Scan Type: MRM (MRM); Polarity: Negative; Ion Source: Turbo Spray.
# For LC, eluent A was 5% methanol, 94.9% water (ultrapure), 0.1% acetic acid, and eluent B was 99.9% methanol, 0.1% acetic acid, using a Phenomenex Kinetex 2.6 μm biphenyl 150×2.1 mm column, an injection volume of 1 μL and the protocol shown in Table 3.
# By applying the DON transformation assay basically as described in Example 3, but at pH values ranging from pH 2 to pH 10, the pH optima for DON degradation of Akr I-III (SEQ ID NOs: 1-3) were determined. Akr I and Akr II reached maximum activities at pH 6.0, Akr III at pH 6.5.
# By applying the DON transformation assay basically as described in Example 3, but at different temperatures ranging from 14.9° C. to 55.7° C., the temperature optima for the DON degradation activities of Akr I-III were determined. Akr I maximum activity was shown at approximately 35° C., Akr II at approximately 31° C., and Akr III at temperatures from approximately 28° C. to 33° C. (see FIG. 4). […] For Akr I even at temperatures below 20° C.
# [2] = Kinetic parameters of DON transformation (Michaelis-Menten fit); assay type: biochemical; details: 200 nM enzyme, TS buffer pH 6.0, 1 mM NADPH
# Procedure: as §1
# Kinetic parameters were determined by performing the DON transformation assay as described in Example 3. Akr I-III were used at a final concentration of 200 nM in Teorell Stenhagen (TS) buffer, pH 6.0 (Ostling and Virtama, Acta Physiologica Scandinavica, 1946, 11:4, 289-293) further containing 1 mM NADPH and DON at a concentration of either 3.38 μM, 33.78 μM, 135.14 μM, 270.27 μM or 1182.43 μM. The observed reaction rates and the corresponding DON concentrations were fitted to the Michaelis-Menten function used to describe enzyme kinetics. The fitting was done using the program SigmaPlot (Systat Software Inc.) to calculate the maximum DON transformation rate of Akr I-III in the assay (Vmax), the Michaelis constant (KM) and the turnover number (kcat). […].
Molecule,temperature of maximum DON degradation activity (temperature optimum) [1],"DON degradation ([1]; 14.9° C., after 20 min of incubation)",pH of maximum DON degradation activity (pH optimum) [1],"DON degradation ([1]; pH 4.0, after 30 min)",Vmax (maximum DON transformation rate) [2] [U/mg],kcat (turnover number) [2] [s⁻¹],"Km ([2]; substrate DON, read-out: KM (Michaelis constant)) [µM]"
B1,approximately 35 °C,complete DON degradation,6.0,complete degradation,8471,5.08,143
B2,approximately 31 °C,–,6.0,–,–,–,–
B3,–,–,6.5,–,–,–,–
